According to patent publication US20060263361A1:
“And” between values parts separate entries of the source, which are not always exact repeats. Equal values may be shown once.

Key:
[1] = target: recombinant KIR2DL1 protein (entire extracellular domain, produced in E. coli, immobilized) (human) (UniProt P43626); assay: Biacore, KIR2DL1 chip; first Ab EB6 vs competitor (second Ab) Pan2D
[2] = target: recombinant KIR2DL1 protein (entire extracellular domain, produced in E. coli, immobilized) (human) (UniProt P43626); assay: Biacore, KIR2DL1 chip; first Ab EB6 vs competitor (second Ab) EB6 (self)
[3] = target: recombinant KIR2DL1 protein (entire extracellular domain, produced in E. coli, immobilized) (human) (UniProt P43626); assay: Biacore, KIR2DL1 chip; first Ab EB6 vs competitor (second Ab) 1-4F1
[4] = target: recombinant KIR2DL1 protein (entire extracellular domain, produced in E. coli, immobilized) (human) (UniProt P43626); assay: Biacore, KIR2DL1 chip; first Ab EB6 vs competitor (second Ab) 1-7F9
[5] = target: recombinant KIR2DL1 protein (entire extracellular domain, produced in E. coli, immobilized) (human) (UniProt P43626); assay: Biacore, KIR2DL1 chip; second Ab injected alone
[6] = target: recombinant KIR2DL1 protein (entire extracellular domain, produced in E. coli, immobilized) (human) (UniProt P43626); assay: Biacore, KIR2DL1 chip; first Ab EB6 vs competitor (second Ab) DF200
[7] = target: recombinant KIR2DL1 protein (entire extracellular domain, produced in E. coli, immobilized) (human) (UniProt P43626); assay: Biacore, KIR2DL1 chip; first Ab EB6 vs competitor (second Ab) 1-6F1
[8] = target: recombinant KIR2DL3 protein (entire extracellular domain, produced in E. coli, immobilized) (human) (UniProt P43628); assay: Biacore, KIR2DL3 chip; first Ab gl183 vs competitor (second Ab) 1-4F1
Sequence of recombinant KIR2DL3 protein (entire extracellular domain, produced in E. coli, immobilized) (human) (P43628 22-245): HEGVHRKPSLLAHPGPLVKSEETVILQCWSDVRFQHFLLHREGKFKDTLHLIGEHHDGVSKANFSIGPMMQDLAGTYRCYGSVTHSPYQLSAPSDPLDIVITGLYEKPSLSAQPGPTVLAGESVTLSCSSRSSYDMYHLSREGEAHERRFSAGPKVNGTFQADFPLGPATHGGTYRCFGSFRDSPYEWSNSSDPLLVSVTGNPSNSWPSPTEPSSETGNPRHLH

[9] = target: recombinant KIR2DL3 protein (entire extracellular domain, produced in E. coli, immobilized) (human) (UniProt P43628); assay: Biacore, KIR2DL3 chip; second Ab injected alone
[10] = target: recombinant KIR2DL3 protein (entire extracellular domain, produced in E. coli, immobilized) (human) (UniProt P43628); assay: Biacore, KIR2DL3 chip; first Ab gl183 vs competitor (second Ab) 1-6F1
[11] = target: recombinant KIR2DL3 protein (entire extracellular domain, produced in E. coli, immobilized) (human) (UniProt P43628); assay: Biacore, KIR2DL3 chip; first Ab gl183 vs competitor (second Ab) 1-7F9
[12] = target: recombinant KIR2DL3 protein (entire extracellular domain, produced in E. coli, immobilized) (human) (UniProt P43628); assay: Biacore, KIR2DL3 chip; first Ab gl183 vs competitor (second Ab) Pan2D
[13] = target: recombinant KIR2DL3 protein (entire extracellular domain, produced in E. coli, immobilized) (human) (UniProt P43628); assay: Biacore, KIR2DL3 chip; first Ab gl183 vs competitor (second Ab) DF200
[14] = target: recombinant KIR2DL3 protein (entire extracellular domain, produced in E. coli, immobilized) (human) (UniProt P43628); assay: Biacore, KIR2DL3 chip; first Ab DF200 vs competitor (second Ab) 1-6F5
immobilized KIR 2DS1 [15] = target: immobilized KIR 2DS1 (UniProt Q14954); assay: Biacore, KIR2DS1 chip; first Ab DF200 vs competitor (second Ab) 1-7F9
Sequence of immobilized KIR 2DS1 (Q14954 22-245 limits assumed): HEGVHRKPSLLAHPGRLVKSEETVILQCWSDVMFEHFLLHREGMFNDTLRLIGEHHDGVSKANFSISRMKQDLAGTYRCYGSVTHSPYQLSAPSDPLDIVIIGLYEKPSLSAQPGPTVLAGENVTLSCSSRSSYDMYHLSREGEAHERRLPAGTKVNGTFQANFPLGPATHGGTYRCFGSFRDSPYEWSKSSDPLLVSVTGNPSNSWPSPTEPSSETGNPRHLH

[16] = target: recombinant KIR2DL1 protein (entire extracellular domain, produced in E. coli, immobilized) (human) (UniProt P43626); assay: Biacore, KIR2DL1 chip; first Ab DF200 vs competitor (second Ab) Pan2D
[17] = target: recombinant KIR2DL3 protein (entire extracellular domain, produced in E. coli, immobilized) (human) (UniProt P43628); assay: Biacore, KIR2DL3 chip; first Ab DF200 vs competitor (second Ab) 1-4F1
[18] = target: recombinant KIR2DL1 protein (entire extracellular domain, produced in E. coli, immobilized) (human) (UniProt P43626); assay: Biacore, KIR2DL1 chip; first Ab DF200 vs competitor (second Ab) 1-6F1
immobilized KIR 2DS1 [19] = target: immobilized KIR 2DS1 (UniProt Q14954); assay: Biacore, KIR2DS1 chip; first Ab DF200 vs competitor (second Ab) Pan2D
[20] = target: recombinant KIR2DL3 protein (entire extracellular domain, produced in E. coli, immobilized) (human) (UniProt P43628); assay: Biacore, KIR2DL3 chip; first Ab DF200 vs competitor (second Ab) gl183
immobilized KIR 2DS1 [21] = target: immobilized KIR 2DS1 (UniProt Q14954); assay: Biacore, KIR2DS1 chip; second Ab injected alone
[22] = target: recombinant KIR2DL1 protein (entire extracellular domain, produced in E. coli, immobilized) (human) (UniProt P43626); assay: Biacore, KIR2DL1 chip; first Ab DF200 vs competitor (second Ab) EB6
[23] = target: recombinant KIR2DL1 protein (entire extracellular domain, produced in E. coli, immobilized) (human) (UniProt P43626); assay: Biacore, KIR2DL1 chip; first Ab DF200 vs competitor (second Ab) 1-7F9
[24] = target: recombinant KIR2DL3 protein (entire extracellular domain, produced in E. coli, immobilized) (human) (UniProt P43628); assay: Biacore, KIR2DL3 chip; first Ab DF200 vs competitor (second Ab) 1-6F1
[25] = target: recombinant KIR2DL1 protein (entire extracellular domain, produced in E. coli, immobilized) (human) (UniProt P43626); assay: Biacore, KIR2DL1 chip; first Ab DF200 vs competitor (second Ab) 1-4F1
[26] = target: recombinant KIR2DL1 protein (entire extracellular domain, produced in E. coli, immobilized) (human) (UniProt P43626); assay: Biacore, KIR2DL1 chip; first Ab DF200 vs competitor (second Ab) 1-6F5
[27] = target: recombinant KIR2DL3 protein (entire extracellular domain, produced in E. coli, immobilized) (human) (UniProt P43628); assay: Biacore, KIR2DL3 chip; first Ab DF200 vs competitor (second Ab) 1-7F9
immobilized KIR 2DS1 [28] = target: immobilized KIR 2DS1 (UniProt Q14954); assay: Biacore, KIR2DS1 chip; first Ab DF200 vs competitor (second Ab) 1-4F1
[29] = target: recombinant KIR2DL3 protein (entire extracellular domain, produced in E. coli, immobilized) (human) (UniProt P43628); assay: Biacore, KIR2DL3 chip; first Ab DF200 vs competitor (second Ab) Pan2D
[30] = target: recombinant KIR2DL1 protein (entire extracellular domain, produced in E. coli, immobilized) (human) (UniProt P43626); assay: Biacore, KIR2DL1 chip; first Ab Pan2D vs competitor (second Ab) 1-6F1
[31] = target: recombinant KIR2DL3 protein (entire extracellular domain, produced in E. coli, immobilized) (human) (UniProt P43628); assay: Biacore, KIR2DL3 chip; first Ab Pan2D vs competitor (second Ab) 1-6F5
immobilized KIR 2DS1 [32] = target: immobilized KIR 2DS1 (UniProt Q14954); assay: Biacore, KIR2DS1 chip; first Ab Pan2D vs competitor (second Ab) 1-7F9
[33] = target: recombinant KIR2DL1 protein (entire extracellular domain, produced in E. coli, immobilized) (human) (UniProt P43626); assay: Biacore, KIR2DL1 chip; first Ab Pan2D vs competitor (second Ab) 1-6F5
[34] = target: recombinant KIR2DL3 protein (entire extracellular domain, produced in E. coli, immobilized) (human) (UniProt P43628); assay: Biacore, KIR2DL3 chip; first Ab Pan2D vs competitor (second Ab) 1-7F9
[35] = target: recombinant KIR2DL1 protein (entire extracellular domain, produced in E. coli, immobilized) (human) (UniProt P43626); assay: Biacore, KIR2DL1 chip; first Ab Pan2D vs competitor (second Ab) DF200
[36] = target: recombinant KIR2DL3 protein (entire extracellular domain, produced in E. coli, immobilized) (human) (UniProt P43628); assay: Biacore, KIR2DL3 chip; first Ab Pan2D vs competitor (second Ab) gl183
[37] = target: recombinant KIR2DL1 protein (entire extracellular domain, produced in E. coli, immobilized) (human) (UniProt P43626); assay: Biacore, KIR2DL1 chip; first Ab Pan2D vs competitor (second Ab) 1-4F1
immobilized KIR 2DS1 [38] = target: immobilized KIR 2DS1 (UniProt Q14954); assay: Biacore, KIR2DS1 chip; first Ab Pan2D vs competitor (second Ab) 1-4F1
[39] = target: recombinant KIR2DL1 protein (entire extracellular domain, produced in E. coli, immobilized) (human) (UniProt P43626); assay: Biacore, KIR2DL1 chip; first Ab Pan2D vs competitor (second Ab) 1-7F9
[40] = target: recombinant KIR2DL3 protein (entire extracellular domain, produced in E. coli, immobilized) (human) (UniProt P43628); assay: Biacore, KIR2DL3 chip; first Ab Pan2D vs competitor (second Ab) 1-4F1
[41] = target: recombinant KIR2DL1 protein (entire extracellular domain, produced in E. coli, immobilized) (human) (UniProt P43626); assay: Biacore, KIR2DL1 chip; first Ab Pan2D vs competitor (second Ab) EB6
[42] = target: recombinant KIR2DL3 protein (entire extracellular domain, produced in E. coli, immobilized) (human) (UniProt P43628); assay: Biacore, KIR2DL3 chip; first Ab Pan2D vs competitor (second Ab) 1-6F1
immobilized KIR 2DS1 [43] = target: immobilized KIR 2DS1 (UniProt Q14954); assay: Biacore, KIR2DS1 chip; first Ab Pan2D vs competitor (second Ab) DF200
[44] = target: recombinant KIR2DL3 protein (entire extracellular domain, produced in E. coli, immobilized) (human) (UniProt P43628); assay: Biacore, KIR2DL3 chip; first Ab Pan2D vs competitor (second Ab) DF200

Sequence of recombinant KIR2DL1 protein (entire extracellular domain, produced in E. coli, immobilized) (human) (P43626 22-245): as the sequence (Q14954 22-245 limits assumed) above, with K70T, L90V, P114L, T154P, N163D, R182H, E216K counted along it

EB6 (IgG1 anti KIR2DL1) (antibody)
percent inhibition of second antibody binding [1]: 40%
percent inhibition of second antibody binding [2]: 57%
percent inhibition of second antibody binding [3]: 48%
percent inhibition of second antibody binding [4]: 65%
RU, second antibody alone [5]: 460 RU and 260 RU
percent inhibition of second antibody binding [6]: 60%
percent inhibition of second antibody binding [7]: 23%

GL183 (IgG1 anti KIR2DL3) (antibody)
percent inhibition of second antibody binding [8]: 75%
RU, second antibody alone [9]: 1240 RU and 800 RU and 620 RU
percent inhibition of second antibody binding [10]: 18%
percent inhibition of second antibody binding [11]: 76%
percent inhibition of second antibody binding [12]: 40%
percent inhibition of second antibody binding [13]: 8%

monoclonal antibody DF200 produced by hybridoma DF200
percent inhibition of second antibody binding [14]: 4%
percent inhibition of second antibody binding (immobilized KIR 2DS1 [15]): 15%
percent inhibition of second antibody binding [16]: 80%
percent inhibition of second antibody binding [17]: 75%
percent inhibition of second antibody binding [18]: 15%
percent inhibition of second antibody binding (immobilized KIR 2DS1 [19]): 70%
percent inhibition of second antibody binding [20]: 20%
RU, second antibody alone (immobilized KIR 2DS1 [21]): 900 RU
percent inhibition of second antibody binding [22]: 90%
RU, second antibody alone [5]: 600 RU and 350 RU
percent inhibition of second antibody binding [23]: 27%
percent inhibition of second antibody binding [24]: 16%
percent inhibition of second antibody binding [25]: 92%
percent inhibition of second antibody binding [26]: 15%
percent inhibition of second antibody binding [27]: 62%
percent inhibition of second antibody binding (immobilized KIR 2DS1 [28]): 87%
percent inhibition of second antibody binding [29]: 75%

monoclonal antibody NKVSF1
percent inhibition of second antibody binding [30]: 12%
percent inhibition of second antibody binding [31]: 18%
percent inhibition of second antibody binding (immobilized KIR 2DS1 [32]): 45%
percent inhibition of second antibody binding [33]: 13%
percent inhibition of second antibody binding [34]: 15%
percent inhibition of second antibody binding [35]: 90%
RU, second antibody alone (immobilized KIR 2DS1 [21]): 1350 RU
percent inhibition of second antibody binding [36]: 85%
percent inhibition of second antibody binding [37]: 95%
RU, second antibody alone [9]: 2400 RU and 870 RU and 990 RU
percent inhibition of second antibody binding (immobilized KIR 2DS1 [38]): 100%
percent inhibition of second antibody binding [39]: 2%
RU, second antibody alone [5]: 545 RU and 475 RU
percent inhibition of second antibody binding [40]: 68%
percent inhibition of second antibody binding [41]: 90%
percent inhibition of second antibody binding [42]: 8%
percent inhibition of second antibody binding (immobilized KIR 2DS1 [43]): 100%
percent inhibition of second antibody binding [44]: 95%
